Experimental data: US8765431B2, “Method for enzymatic production of decarboxylated polyketides and fatty acids” (The Regents of the University of Michigan, priority 2009, dated 2014)
Substitutions are numbered along the chain they refer to. Names may count otherwise.

B1: H266R: CurM TE control mutation in the catalytic triad (protein)
chain: MEEKFLEFGGNQICLCSWGSPEHPVVLCIHGILEQGLAWQEVALPLAAQGYRVVAPDLFGHGRSSHLEMVTSYSSLTFLAQIDRVIQELPDQPLLLVGHSMGAMLATAIASVRPKKIKELILVELPLPAEESKKESAVNQLTTCLDYLSSTPQHPIFPDVATAASRLRQAIPSLSEEFSYILAQRITQPNQGGVRWSWDAIIRTRSILGLNNLPGGRSQYLEMLKSIQVPTTLVYGDSSKLNRPEDLQQQKMTMTQAKRVFLSGGRNLHIDAAAALASLILTS
B2: R205E: CurM TE point mutant R205E (protein)
chain: B1 chain with R205E, R266H
B3: N267A: CurM TE mutant of conserved Asn next to the catalytic His (protein)
chain: B1 chain with R266H, N267A
B4: R205Q: CurM TE point mutant R205Q (protein)
chain: B1 chain with R205Q, R266H
B5: R205A: CurM TE point mutant R205A (protein)
chain: B1 chain with R205A, R266H
B6: N211A: CurM TE mutant of conserved Asn interacting with R205 (protein)
chain: B1 chain with N211A, R266H

How the values were obtained:
Format in all cases: biochemical, Lyngbya majuscula
[1] = system: CurM ST and TE; assay: Coupled ST-TE one-pot reaction (HPLC, LC-MS); conditions: from model substrate (3R)-1-ACP
Protocol: With the order of the ST and TE reactions established for the acyl-ACP intermediate, the next investigation was to couple the two reactions in one pot. […] Under the same reaction conditions, it was discovered that the CurM TE catalyzed hydrolysis reaction with sulfonated product (3R)-2-ACP was about 800-fold faster than with (3R)-1-ACP. Moreover, TE catalyzed hydrolysis of (3R)-2-ACP was about 120-fold faster than (3S)-2-ACP (FIG. 7).
(§1) Next, experiments were performed to assess whether the proposed sulfonated intermediate (3R)-2 (FIG. 3A) is released following hydrolysis of (3R)-2-ACP, or whether formation of 3 (FIG. 3B) occurs directly by a coordinated decarboxylative elimination process. First, the ST-TE coupled reactions with (3R)-1-ACP were analyzed by LC-MS and a single product was confirmed to be (3R)-2 by co-injection with the corresponding authentic standard (FIG. 3A iii). Due to the expected volatility of 3, the contents of the coupled reaction were extracted with hexane and analyzed by GC-MS. A second product was thus detected and confirmed to be 3 by co-injection with the corresponding authentic standard (FIG. 3B iv). […]
(§2) The ST and TE assays were performed using R)-1-ACP and (3S)-1-ACP substrates. […] All the reactions were incubated at room temperature, quenched by addition of 10% formic acid, and analyzed by reverse-phase HPLC using Jupiter C4 column. […]

[2] = system: CurM TE; assay: TE-catalyzed decarboxylative elimination to 3 (GC-MS); conditions: in 1 hour; free authentic (synthetic) substrate
Protocol: as §1, with “First, the ST-TE coupled reactions with (3R)-1-ACP were analyzed by LC-MS and a single product was confirmed to be (3R)-2 by co-injection with the corresponding authentic standard (FIG. 3A iii).” left out
as §2, with “column. The ACP fractions were collected, lyophilized and analyzed by FTICR-MS and IRMPD.” for “column.”
The samples and authentic standard were analyzed by a 6890N gas chromatograph equipped with a 5973 mass selective quadrupole detector (Agilent). […] Total ion chromatograms were recorded using a mass range of 60-420 amu, and the selective ion chromatograms were recorded by monitoring the two to three most abundant masses plus the parent masses of target compounds.

[3] = system: CurM TE; assay: Steady-state kinetic analysis of TE hydrolysis using CoA-linked substrates; conditions: steady-state kinetics
Protocol: (3S)-1-ACP and (3R)-1-ACP were prepared as the TE substrates to test its stereoselectivity for the β-hydroxyl group. The reactions were analyzed by reverse-phase HPLC, and the separated ACP fractions were examined by Fourier transform ion cyclotron resonance mass spectrometry (FTICR-MS) and infrared multiphoton dissociation (IRMPD) (16) techniques. In addition, the chain-release products were detected by LC-MS and confirmed by co-injection with authentic standards. […] However, TE-catalyzed hydrolysis of (3S)-1-ACP was about 5-fold faster than with (3R)-1-ACP (FIG. 5A). […] However, based on bioinformatic analysis of PKS ketoreductase (KR) sequences (17), the CurM KR was predicted to reduce the β-keto to a (R)-β-hydroxyl group in the full-length chain intermediate.
HPLC-based analyses of the TE hydrolysis were performed using XBridge C18 column (4.6×250 mm, 5 μm, Waters) on the Gold HPLC system equipped with an autosampler and controlled by 32 Karat software (Beckman Coulter). Samples were eluted with a linear gradient from 10% to 90% of MeOH/H2O (10 mM CH3CO2NH4). For steady state kinetic studies. TE hydrolysis was examined in 40 μl 50 mM Tris-HCl buffer (pH 7.0) with 100 μM, 200 μM, 500 μM, 1000 μM and 2000 μM (3R)-1-CoA or (3S)-1-CoA. […] The TE hydrolysis reaction was measured by consumption of CoA substrates. […]

[4] = system: CurM ST; assay: ST sulfonation of free acid and ACP-linked substrates (LC-MS, HPLC, FTICR-MS); conditions: in the presence of ST and PAPS
Protocol: Based on the known mechanism of ST enzyme function, CurM ST was predicted to bind to PAPS, and transfer a sulfonate moiety to the β-hydroxyl group of the intermediate tethered to or released from CurM ACP (FIG. 1B). First, the ST substrate was identified by testing the sulfonation of 1 and 1-ACP. The sulfonation of 1 was analyzed by LC-MS, and that of 1-ACP was examined by HPLC and FTICR-MS. […] Likewise, the stereoselectivity of ST for the β-hydroxyl group was determined by comparing the sulfonation efficiency of (3S)-1-ACP and (3R)-1-ACP. Under the same reaction condition, ST sulfonation with (3R)-1-ACP was about 2.5-fold faster than with (3S)-1-ACP (FIG. 6). Thus, CurM ST stereoselectivity is consistent with the predicted formation of a (R)-β-hydroxyl group by CurM KR.
The ST and TE assays were performed using R)-1-ACP and (3S)-1-ACP substrates. Typically, for the ST reactions, about 300 μM ACP-linked substrate was added with 2 μM ST and 2 mM PAPS in 50 mM Tris-HCl buffer (pH 7.0). For the TE reactions, about 300 μM ACP-linked substrate was added with 2 μM TE in 50 mM Tris-HCl buffer (pH 7.0). All the reactions were incubated at room temperature, quenched by addition of 10% formic acid, and analyzed by reverse-phase HPLC using Jupiter C4 column. The ACP fractions were collected, lyophilized and analyzed by FTICR-MS and IRMPD. […]

[5] = system: ACP with the sulfated substrate; assay: TE point mutant activity assay (liberation of holo ACP, HPLC); conditions: for Activity compared to wild type: 1 min; for % Activity: relative to wild type CurM TE and free hydrolysis without enzyme, quenched after 1 min
Protocol: The activity of these mutants was tested using the same assay described previously (28). A one-pot reaction was used where CurM ACP was loaded with a synthesized substrate mimic (FIG. 1B) using Svp, after which CurM ST sulfates the β-hydroxyl. Lastly, CurM TE was added and the reaction is quenched after 1 minute. The liberation of holo ACP was detected by a shift on the HPLC. The ratio of holo ACP to ACP with the sulfated substrate was measured. Mutant activity was compared to the activity of wild type CurM TE and free hydrolysis without enzyme in order to obtain percent activity for the mutants (Table 3).
TE activity was assayed using a modification of the protocol developed by Gu et. al. (28). To generate the sulfated substrate for the TE assay, 225 μM loaded ACP was incubated with 5 μM ST, 1.75 mM PAPS (Sigma), in 100 mM Tris pH 7.9 at room temperature for 10 min. Four μM TE was then added to the mixture and the reaction was quenched with 10% formic acid after 1 min. The samples were analyzed by reverse phase HPLC using a Jupiter C4 column (250×2.0 mm, 5 μm, 300 Å, Phenomenex) and a linear elution gradient from 30% to 90% CH3CN (0.1% CF3CO2H)/H2O (0.1% CF3CO2H) over 45 min.

| Molecule | Activity compared to wild type [5] | % Activity [5] [%] | further results |
| --- | --- | --- | --- |
| CCCCCCCCCC(C[C@H](CC(=O)O)OS(=O)(=O)O)OC (mixture of isomers) [(3R)-2, (3R,5RS)-3-Sulfonatooxy-5-methoxytetradecanoic acid] | – | – | Level of (3R)-2 as a product of the TE reaction [1]: greater than 50%; Conversion to 3 by TE [2]: about 2 % conversion |
| CCCCCCCCCC(C[C@H](O)CC(=O)O)OC (mixture of isomers) [(3S)-1, (3S,5RS)-3-Hydroxy-5-methoxytetradecanoic acid] | – | – | Substrate preference of TE [3]: preferred substrate |
| CCCCCCCCCC(CC(O)CC(=O)O)OC (stereo not shown) [compound 1] | – | – | Substrate conversion by ST [4]: No substrate conversion |
| B1 | 1 % of WT | 1.4 ± 0.2 | – |
| B2 | – | 2.3 ± 2.1 | – |
| B3 | catalytic activity, but at a reduced rate | 38.4 ± 3.1 | – |
| B4 | – | 1.8 ± 0.3 | – |
| B5 | – | 6.1 ± 3.1 | – |
| B6 | catalytic activity, but at a reduced rate | 54.7 ± 1.8 | – |
